Data set [1] concerns the molecule itself. The data set can be described thus: crystal structure; LbTDC/PLP complex at a molar ratio of 1:4, 0.1 M sodium cacodylate trihydrate pH 7.0, 0.1 M MgCl2, 16% PEG 4000; space group P21.
Data set [2] deals with the molecule itself. Briefly: crystal structure; apo-LbTDC, sitting-drop vapor diffusion at 18 °C, 0.1 M sodium cacodylate trihydrate pH 7.5, 0.2 M MgCl2, 18% PEG 1000; space group P21.

B1: Lactobacillus brevis tyrosine decarboxylase in complex with PLP, holo form (enzyme, Lactobacillus brevis CGMCC 1.2028)
chain: MEKSNRSLKDLDLNALFIGDKAENGQLYKDLLNKLVDEHLGWRKNYIPSDPNMIGPEDQNSPAFKKTVGHMKTVLDQLSERIRTESVPWHSAGRYWGHMNSETLMPALLAYNYAMLWNGNNVAYESSPATSQMEEEVGQEFARLMGYDYGWGHIVADGSLANLEGLWYARNIKSLPFAMKEVNPELVAGKSDWELLNMPTKEIMDLLENAGSQIDEVKKRSARSGKNLQRLGKWLVPQTKHYSWMKAADIIGIGLDQVVPVPIDSNYRMDIQALESIIRKYAAEKTPILGVVGVAGSTEEGAVDGIDKIVALRQKLQKEGIYFYLHVDAAYGGYARALFLDEDDQFIPYKNLQKVHAENHVFTEDKEYIKPEVYAAYKAFDQAESITIDPHKMGYVPYSAGGIVIQDIRMRDTISYFATYVFEKGADIPALLGAYILEGSKAGATAASVWAAHHTLPLNVTGYGKLEGASIEGAHRYYDFLKNLKFEVAGKRISVHPLISPDFNMVDYVLKEDGNDDLIEMNRLNHAFYEQASYVKGSLYGKEYIVSHTDFAIPDYGDSPLAFVESLGFSEVEWRHAGKVTIIRASVMTPYMNQRENFDYFAPRIKKAIQADLEKVYASVNQKENV
modifications: PLP covalently attached to the ε-amino group of K392 (internal aldimine, Schiff base)
notes: Tyrosine decarboxylase (TDC, EC 4.1.1.25) of Lactobacillus brevis CGMCC 1.2028; domains in the structure span residues 7-618; also called holo-LbTDC; LbTDC/PLP complex; source: E. coli BL21(DE3) harboring pET24a-tdc, purified (Ni2+-agarose column); crystallized with PLP at a molar ratio of 1:4
On to B1, for which, in data set [1], the “stoichiometry N” value was 2.

B2: Lactobacillus brevis tyrosine decarboxylase, apo form (without PLP) (enzyme, Lactobacillus brevis CGMCC 1.2028)
chain: B1 chain
notes: Tyrosine decarboxylase (TDC, EC 4.1.1.25) of Lactobacillus brevis CGMCC 1.2028; domains in the structure span residues 7-618; A selenomethionine form was used only for phasing; also called apo-LbTDC; LbTDC; source: E. coli BL21(DE3) harboring pET24a-tdc, purified (Ni2+-agarose column)
B2: the “stoichiometry N” value in data set [2] stood at 2.

Usually stoichiometry N stands for the number of molecules, sites or subunits per partner or assembly.
